Series [1] addresses zebrafish PATZ1 BTB domain (residues 1-135) (zebrafish (Danio rerio)). As to the kind of experiment: SEC.
Series [2] deals with the molecule itself. Description: SEC.

The stoichiometry N is the number of molecules, sites or subunits per partner or assembly. Take “zebrafish PATZ1 BTB domain (residues 1-135) (domain or fragment)”: the stoichiometry N in series [1] turned out to be 2.

B1: mouse PATZ1 BTB domain (residues 12-166) (domain or fragment)
chain: SGCYTYQVSRHSTEMLHNLNQQRKNGGRFCDVLLRVGDESFPAHRAVLAACSEYFESVFSAQLGDGGAADGGPADVGGAAAAPGGGAGGSRELEMHTISSKVFGDILDFAYTSRIVVRLESFPELMTAAKFLLMRSVIEICQEVIKQSNVQILVP
For the molecule B1, in series [2], the “stoichiometry N” value was 2.

Source of the values: doi:10.1101/2020.01.13.903898 (bioRxiv, 2020).
